# Article PMC2119638
# How the values were obtained:
# [1] = target: 190-kD proteolytic fragment of talin (chicken) (UniProt P54939); experiment: radioligand binding
# [2] = target: talin purified from chicken gizzard (chicken) (UniProt P54939); experiment: radioligand binding
substance,measurement,setting,value
vinculin purified from chicken gizzard (natural protein),"Kd, higher affinity of two",[1],16 nM
same,"Kd, lower affinity of two",[1],220 nM
same,"Kd, high affinity interaction",[2],30 nM
same,"Kd, higher affinity of two",[2],10 nM
same,"Kd, lower affinity interaction",[2],550 nM
same,"Kd, lower affinity of two",[2],240 nM
same,"N (Bmax), high affinity interaction (mol of vinculin bound per mol of talin)",[2],0.15
same,"N (Bmax), lower affinity interaction (mol of vinculin bound per mol of talin)",[2],3
